Results published in patent publication US20090053184A1.

Tests used:
Experiment in all cases: chromium release; transduced lymphocytes against T2 cells having HLA-A2 pulsed with 'NY-ESO-1 peptide'; which of the listed peptides not given; full-length, on cells
Conditions in all cases: chains Valpha:Vbeta
[1] = target: T1, NY-ESO-1 peptide on HLA-A*02:01 (human)
T1 chain: SLLMWTTQCFLP

[2] = target: T2, NY-ESO-1 peptide on HLA-A*02:01 (human)
T2 chain: SLLMWTTQV

[3] = target: T3, NY-ESO-1 peptide on HLA-A*02:01 (human)
T3 chain: SLLMWTTQC

Measured: lowest peptide concentration that stimulated killing

B1: anti-NY-ESO-1 TCR (SEQ ID NOS: 6 and 8) (protein)
chain 1: SQQGEEDPQALSIQEGENATMNCSYKTSINNLQWYRQNSGRGLVHLILIRSNEREKHSGRLRVTLDTSKKSSSLLITASRAADTASYFCATDGAGKSTFGDGTTLTVKP
chain 2: DAGVIQSPRHEVTEMGQEVTLRCKPISGHDYLFWYRQTMMRGLELLIYFNNNVPIDDSGMPEDRFSAKMPNASFSTLKIQPSEPRDSAVYFCASTIGAQPQHFGDGTRLSIL
< 0.02 nM: [1] | [2] | [3]
